Measurements published in patent US20110294728A1, “Antiviral Polypeptides” (priority 2008, published 2011).

Biological target: monomeric p51 subunit of HIV-1 RT (HIV-1) (UniProt P03366)
Test: size-exclusion chromatography, 3.5 µM p51 with 20 µM FITC-PAW

monomeric p51 subunit of HIV-1 RT (from UniProt P03366 600-1039) (enzyme)
percent of p51 dimeric: 4.6%
